The results in this text go back to patent publication US20090203038A1 (AbbVie / Abbott, published 2009).

The assay addresses T1, biotinylated cyclic BNP (1-32c) (human, biotinylated; cyclic).
T1 construct: also called human BNP
In words: flow cytometry, yeast-displayed scFv, biotinylated cyclic BNP (1-32c) detected with SA:PE. The method, then:
Dilutions of the transformation reaction were plated on selective glucose plates (2% glucose (0.67% yeast nitrogen base, 0.105% HSM-trp-ura, 1.8% bacterial agar, 18.2% sorbitol, 0.86% NaH₂PO₄H₂O, 1.02% Na₂HPO₄ 7H₂O)) and incubated at 30° C. for 48-72 hours. Selective glucose media was inoculated with individual colonies and grown shaking at 30° C. for 16-20 hours. Protein expression was induced in colonies by transferring 0.5 OD600 of cells/ml (1e7 cells/0.5 OD/ml) to selective galactose media. Colonies were shaken at 20° C. for 16-24 hours and then analyzed by the FACS Aria flow cytometer for binding to cyclic BNP (referred to as “1-32c”) (SEQ ID NO:10) and anti-V5.

T1 sequence (peptide, as listed by the source): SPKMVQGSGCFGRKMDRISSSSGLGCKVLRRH

B1: 3-631-436 scFv (wildtype), displayed on the surface of yeast (scFv)
scFv: QVQLQQPGAELVRPGASVKLSCKASGYTFTSYWMNWVKQRPEQGLEWIGRIDPYDSETHYNQKFKDKAILTVDKSSSTAFVQLTSLTSEDSAVYYCVSDGYWGAGTTVTVSSGPAKELTPLKEAKVSDVVMTQTPLTLSVTTGQPASISCKSSQSLLDSDGKTYLNWLFQRPGESPKLLIYVVSKLESGVPDRFTGSGSGTDFTLKISRVEAEDLGVYYCLQATHFPWTFGGGTKLEIKRAAALESRGPFEGKPIPNPLLGLDSTRTGHHHHHH
With B1, the binding result was “binds”.
